According to patent US20200108091A1, “GUT-PROTECTIVE EFFECT OF RIG-1/MAVS AND STING ACTIVATION” (MEMORIAL SLOAN-KETTERING CANCER CENTER, priority 2017, published 2020):

System: small intestinal organoids
Experiment: Ex vivo organoid culture of small intestine crypts
Format: cell-based, mouse
Description: Isolation of intestinal epithelial crypts was performed as previously described (26). Briefly, after harvesting small intestines, the organs were opened longitudinally and washed. Small intestine was incubated in 10 mM ethylenediamine-tetraacetatic acid (EDTA) for 25 min (4° C.) to dissociate the crypts. The supernatant containing crypts was collected.
250 crypts per well were suspended in growth factor reduced Matrigel (Corning) (33% ENR-medium; 66% growth factor reduced Matrigel) at 4° C. Then, they were plated in delta-surface Nunc 24-well plates in 30 μL drops, each containing approximately 250 crypts. […]
To determine the effect of 3pRNA/interferon stimulatory DNA/rmIFN-β on organoid size and morphology, bright-field microscopy images were taken using a Zeiss Axiovision Observer microscope with a 5× objective lens after 5 or 7 days in culture. 2D area and perimeter were analyzed using border perimeter tracing of organoids found in four representative fields of each well using Image J software. For assessment of gene expression by quantitative (q) PCR, organoids were subjected to RNA extraction 24 hours after culture using Trizol reagent (Invitrogen) according to manufacturer's protocol. Isolated RNA was reverse-transcribed using the Quantitect Reverse Transcription Kit (Qiagen). […]

B1: recombinant IFN-β: recombinant murine (rm) IFN-β (20 U/ml; PBL (12400-1)) (protein, UniProt P01575 22-182, looked up)
Interferon beta: INYKQLQLQERTNIRKCQELLEQLNGKINLTYRADFKIPMEMTEKMQKSYTAFAIQEMLQNVFLVFRNNFSSTGWNETIVVRLLDELHQQTVFLKTVLEEKQEERLTWEMSSTALHLKSYYWRVQRYLKLMKYNSYAWMVVRAEIFRNFLIIRRLTRNFQN
number of organoids (7 days in culture, IFN-β 20 U/ml or α-IFNaR1 Ab 10 ug/ml): Neither recombinant IFN-β nor IFNAR blockade could influence | organoid size (recombinant murine IFN-β 20 U/ml, 5 or 7 days in culture): increased organoid size
